Source: patent US20160280796A1 (Memorial Sloan Kettering, published 2016)

How the values were obtained:
[1] = molecular target: T1, MHC1/WT1 peptide complex (soluble, biotinylated MHC-WT1 loaded on streptavidin biosensor) (human); test: ForteBio Octet QK, biotinylated MHC-WT1 on streptavidin biosensor, antibody at 20 µg/ml, 1:1 model
T1 construct: also called WT1/HLA-A2 complex

[2] = molecular target: T1, MHC1/WT1 peptide complex (soluble, …); test: ForteBio Octet QK, biotinylated MHC-WT1 on streptavidin biosensor, antibody at 10 µg/ml, 1:1 model

| Binder | Kd [1] | koff [1] | kon [1] | Kd [2] | koff [2] | kon [2] |
| --- | --- | --- | --- | --- | --- | --- |
| ESK1-OKT3 (bi-specific), full length bi-specific antibody made from ESK1 and anti-CD3 OKT3 by 2-MEA reduction and re-oxidation (bispecific antibody, also called ESK1/OKT3 bi-specific monoclonal antibody) heavy 1: not shown light 1: not shown heavy 2: not shown light 2: DIQMTQSPSSLSASVGDRVTITCSASSSVSYMNWYQQTPGKAPKRWIYDTSKLASGVPSRFSGSGSGTDYTFTISSLQPEDIATYYCQQWSSNPFTFGQGTKLQITRTVAAPSVFIFPPSDEQLKSGTASVVCLLNNFYPREAKVQWKVDNALQSGNSQESVTEQDSKDSTYSLSSTLTLSKADYEKHKVYACEVTHQGLSSPVTKSFNRGEC | 0.0922 µM | 0.0033 s⁻¹ | 35800 M⁻¹ s⁻¹ |  |  |  |
| ESK1 (full-length antibody, parent of the ESK1-OKT3 bi-specific) (antibody, V domains shown, also called ESK1 mAb) VH: QMQLVQSGAEVKEPGESLRISCKGSGYSFTNFWISWVRQMPGKGLEWMGRVDPGYSYSTYSPSFQGHVTISADKSTSTAYLQWNSLKASDTAMYYCARVQYSGYYDWFDPWGQGTLVTVSS VL: not shown |  |  |  | 0.00912 µM | 0.00499 s⁻¹ | 547000 M⁻¹ s⁻¹ |
